How the values were obtained:
[1] = biological target: Prototype foamy virus integrase (PFV IN) wild type, tetrameric intasome (Prototype foamy virus) (UniProt P14350); conditions: smTIRF lifetime at physiological buffer; searches 1.6 kb; integration rare
[2] = biological target: Prototype foamy virus integrase (PFV IN) wild type, tetrameric intasome (Prototype foamy virus) (UniProt P14350); conditions: smTIRF FRET, stalling at gap; 110 mM NaCl, 2 mM MgSO4, 24 C

| Substance | binding [1] [s] | binding (% of search events with integration) [2] |
| --- | --- | --- |
| 23 kb naked linear DNA | 2.1 | – |
| 60 bp target DNA with 1 or 2 base gap | – | 20 |

Reference: patent publication US20240425828
